Measured values as given in patent US20240409621A1 (XIAMEN UNIVERSITY, published 2024).

Tests used:
Assay in all cases: cell-based or functional assay
[1] = target: T1, F protein of RSV A2 (on the virus in the neutralization assay) (respiratory syncytial virus, A2 strain, UniProt P03420 26-574)
[2] = target: F protein of RSV type B strain 18537 (on the virus in the neutralization assay) (respiratory syncytial virus type B, …, UniProt P13843 26-574)
[3] = target: T1, F protein of RSV A2 (on the virus in …); remark: listed apart in the source

B1: monoclonal antibody 7G5 (antibody, V domains shown)
VH: QVQLKESGPGLVAPSQSLSITCTVSGFSLSSYGVHWIRQPPGKGLEWLGVIWAGGSTNYNSALMSRLSISEDNSKSQVFLKMNSLQTDDTAVYYCARKGLVWPAMDYWGQGTSVTVSQ
VL: DIQMTQTTSSLSASLGDRVTISCRASQDISHYLNWYQQKPDGTVKLLIYYTSRLHSGVPSRFSGSGSGTDYSLTIYNLEQEDIATYFCQQGNTLPWTFGGGTKLEIK
- IC50 of each RSV neutralizing antibody, RSV A2 [1]: 0.0316 µg/mL

B2: monoclonal antibody 5B11 (antibody, V domains shown)
VH: QIQLVQSGPELKKPGETVKISCKASGYTFTDYSMHWLKQAPGKGLKWMGWITTETGEPTYADDFKGRFAFSLETSASTAYLQINNLKNEDTGIYFCARYYYGPFYWGQGTLVTVST
VL: DIQMTQSPASLSASVGETVTITCRSSGNIHNFLTWYQQKQGKSPQFLVYNAKTLADGVSSRFSGSGSGTQFSLKINSLQPEDFGIYYCQHFWTTPYTFGGGTKLEIK
- IC50 of each RSV neutralizing antibody, RSV A2 [1]: 0.0074 µg/mL
- neutralizing ability against 18537, relative to 1129 [2]: ~10 times
- neutralizing ability against RSV A2, relative to 1129 [3]: 50 times

B3: monoclonal antibody 6B2 (antibody, V domains shown)
VH: EVQLQQSRPELVKPGASVKISCKASGYSFTAYFMNWVKQSHGKSLEWIGRINPYIGDTFYNQKFKGKATLTVDKSSNTAHMELLSLTSEDSAVYYCGRSEYGNYYFDYWGQGTTLTVSQ
VL: ENVLTQSPAIMSASLGEKVTMSCRASSSVNYMYWYQQKSDASPKLWIYYTSNLAPGVPARFSGSGSGNSYSLTISSMEGEDAATYYCQQFTSSPLTFGAGTKLELK
- IC50 of each RSV neutralizing antibody, RSV A2 [1]: 0.0949 µg/mL
